Several values for one entry are separate records, joined by “and”; a condition that tells them apart may be missing. Equal values may be shown once.
Legend:
[1] = biological target: subtilisin-digested microtubules (lacking E-hooks) (porcine) (UniProt P02550); experiment: co-sedimentation
[2] = biological target: Taxol-stabilised microtubules polymerised from porcine brain tubulin (porcine) (UniProt P02550); experiment: co-sedimentation

Sequence of UniProt P02550 (P02550 whole entry, looked up): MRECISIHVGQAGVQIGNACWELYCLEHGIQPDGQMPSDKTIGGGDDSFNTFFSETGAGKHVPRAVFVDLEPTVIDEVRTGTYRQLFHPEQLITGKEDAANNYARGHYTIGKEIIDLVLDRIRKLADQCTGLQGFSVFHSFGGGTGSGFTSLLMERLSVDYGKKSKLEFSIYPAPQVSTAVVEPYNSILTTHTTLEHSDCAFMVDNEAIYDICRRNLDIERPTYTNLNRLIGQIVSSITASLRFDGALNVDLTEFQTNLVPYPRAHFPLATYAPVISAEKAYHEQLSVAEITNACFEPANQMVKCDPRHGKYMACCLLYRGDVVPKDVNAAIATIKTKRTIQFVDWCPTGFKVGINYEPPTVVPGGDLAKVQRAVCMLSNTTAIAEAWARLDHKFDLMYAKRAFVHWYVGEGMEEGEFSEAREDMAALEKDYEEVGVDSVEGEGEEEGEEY

KLP-18 C-stalk (C-terminal half of the KLP-18 stalk) (domain or fragment)
Shift to pellet (%) [1]: 26.7% | Shift to pellet (%) [2]: 52.7% and 50.8%

MBP-MESP-1 (natural protein)
Shift to pellet (%) [2]: 56.1% and 41.6%

Reference: article PMC9635285
